Test results reported in US20250019450A1 (DIAGONAL THERAPEUTICS, published 2025).
Residue numbers refer to the chain shown, from its start.

B1: VHH86B1 (VHH)
VHH: QVQLVESGGGLMQAGGSLRLSCALSRGIFSAYAMGWFRQVQGKEREFVSGISRSGSTTDYVDTAKGRFTISRDNARDTVYLQMNSLKPEDTAVYYCAAVTGTFPSSTYHNANAYHHWGQGTQVTVSS
B2: VHH238B1 (VHH)
VHH: QLQLVESGGGLVQPGGSLRLSCAASGFTFSSYGMSWVRQAPGKGLEWVSYISAGGGTTTYVDFVKGRFTISRDNAKNMLYLQMNSLKPEDTAVYYCVHAADGSRGQGTQVTVSS
B3: VHH115B1 (VHH)
VHH: QVQLVESGGGLVQAGGSLRLSCLASGRTSNYFMGWFRQAPGKEREFVAAISRSGGGTWYADSVKGRFAISRDNAKNTVNLQMNSLKREDTAVYYCAADRRTGTSVYTVDEYDYWGQGTQVTVSS
B4: VHH263B1 (VHH)
VHH: EVQLVESGGGLVQAGGSLRLSCAASGSKFSFNAMGWYRQTPGKQRELVAIIINGDMINYADSVKGRFTISRDNAKNTMYLQMNSLKPEDTAVYYCKMTRYVYDYWGQGTQVTVSS
B5: VHH233B1 (VHH)
VHH: QVQLVESGGGLVQAGGSLRLSCAASRSISSFNEMAWYRQAPGEQRELVATIVSTVGFTNYADSVKGRFTISRDNAKNTVYLQMNSLKAEDTAVYYCNARRISTDYWGQGTQVTVSS
B6: VHH72B1 (VHH)
VHH: EVQLVESGGGLVQAGGSLRLSCAASGLTFRNYAMAWFRQAPGKEREFVAGITWGGGLTHYVDSVKGRFTISRDNGKNTVYLQMNSLKSEDTAVYYCAGKTQGSTWYHLTPDGYDYWGQGTQVTVSS
B7: VHH97B1 (VHH)
VHH: QVQLVESGGGLAQAGGSLRLSCAASGRTFSNDDMAWFRQAPGKEREFVAHIDRNAASTNYADSVKGRFTISRDNAKNTVYLQMTRLKPEDTAVYYCAADPDHFGTTWYQQYTYWGPGTQVTVSS
B8: VHH108B1 (VHH)
VHH: EVQLVESGGGLVQPGGSLTLSCTASGFRFSDRSMGWYRQAPGKQRELVAAITVGGSTNYADSVKGRFTISRDNAKNTVYLQMNSLKPEDTALYYCNRRYPPDDYWGQGTQVTVSS
B9: VHH54B1 (VHH)
VHH: QVQLVESGGGLVQAGGSLRLSCAASGGPFSGYVMGWFRQVSGKEREFVAGITGISSTYFADSVKGRFTISRDNAKNMVYLQMNSLKPEDTAVYYCAAVNSFGVIPTSPNGMDYWGKGTLVTVSS
B10: VHH137B1 (VHH)
VHH: QVQLVESGGGLVQAGGSLRLSCAASGRTFRTYAMGWFRQAPGKDREVVGIAAWKVASTYYVDYGDSVRGRFTISRDDAKSTVYLQMNNLMPEDTAVYYCAAGAFRTDWRSYAYWGQGTQVTVSS
B11: VHH136B1 (VHH)
VHH: QVQLQESGGGLVQAGGSLRLSCAAPGRYAVGWFRQAPGKEYEFVAAITVSGGSKYYEDSVKGRFTISRDNAKNTVYLEMNSLKAEDTAVYYCAARTPKFGSGWYNRRGEYDYWGQGTQVTVSS
B12: VHH172B1 (VHH)
VHH: B11 VHH with Q5V, T120A
B13: VHH58B1 (VHH)
VHH: B11 VHH with Q5V, T65A, E78Q
B14: VHH41B1 (VHH)
VHH: EVQLVESGGGLVQAGGSLRVACAASGRTFSTYAMAWFRQAPGKEREFVAHILWSGGSTVYPDSVRGRFTISRDNAKNTVYLQMNSLKPEDTAVYYCAQKSGRQVYRIDSWDSFDYWGQGTSVTVSS
B15: VHH276B1 (VHH)
VHH: QVQLVESGGGLVQAGASLRLSCAASGRTFSSYAMGWFRQAPGKEREFVAAISGGTPNNIYYTNYKDAVRGRFTISRDNAKNTVYLQMSSLKPEDTAVYYCGATMGRYWNTGGYDYWGQGTQVTVSS
B16: VHH258B1 (VHH)
VHH: QVQLVESGGGLVQAGGSLRLSCAASGRTFSSYVMGWFRQAPGQEREFVAAIMRNGIMTYYADSVKGRFTISRDNAKNTVYLQMNTLKPDDTAVYYCAAASRVGVSISQSSSYTSWGQGTQVTVSS
B17: VHH67B1 (VHH)
VHH: QVQLVESGGGLVQAGGSLRLSCAASARIFNSYAVAWFRQTPGKEREFVASISWSGGSTNYADSVKGRFTISRDNAKNTVFLQMNSLKPADTAVYYCAADRNYYPSVLGKYTYWGQGTQVTVSS
B18: VHH245B1 (VHH)
VHH: QVQLQESGGGLVQAGGSLRLSCAASGSIASINAMGWYRQAPGKQRDFVARIQLSGQTSYAHSVRGRFTISRDNAKNTVYLQMNNLKPEDTAVYVCAASNTGSLYGLRNYWGQGTQVTVSS
B19: VHH32B1 (VHH)
VHH: EVQLVESGGGLVQPGGSLRLSCAASGFTFQNYAMSWLRKAPGEGLEWVSVINSGGGSTLYADSVKGRFTISRDNAKNTLYLQMHSLKSEDTAVYFCAKRRDDSTFGSLLYTHRGQGTQVTVSS
B20: VHH195B1 (VHH)
VHH: QVQLVESGGGLVQAGGSLRLSCAASGRTFGTYAMGWFRQAPGKERDFVARISNSGAFTHYADSVKGRFTISRDNAKNTVYLHMNSLENGDTAAYYCVATRGTNSAYYTRSTMYEYWGQGTQVTVSS
B21: VHH154B1 (VHH)
VHH: QVQLQESGGGLVQVGDSLRLSCVASGRIFGVNTRAWYRQAPGNQRELVAQISSGGNINYADSVKGRFTISMDKFTDTVYLQMNSLKPEDTAIYRCAAHRQHPYADVWGQGTQVSVSS
B22: VHH104B1 (VHH)
VHH: EVQLVESGGGLVQPGGSLRLFCAASRSIFNINIMGWYRQAPGKQREWLASITSGGSTFYADSVKDRFTISRDSVKNTVYLQMNSLKPEDTAAYYCNRYRSVPLNTVYPWGQGTLVTVSS
B23: VHH187B1 (VHH)
VHH: EVQLVESGGGLVQPGGSLRLSCAASGFTLDYYAIGWFRQAPGKEREGVSCISSSDRSTWYADSVKGRFTISRDNAKNTVYLQMHSLKPEDTAVYYCATPCYSDYDPEGYEYDYWGQGTQVTVSS
B24: VHH321B1 (VHH)
VHH: QVQLVESGGGLVQPGGSLRLSCIASGFTFSDYAMKWVRRPPGKGLEWVSVIDSEGPTIKYSDAVRGRFTISRDNAKNTLYLQMNSLKPEDTAVYYCAKSNGGSAFSSVLYTDRGQGTQVTVSS
B25: VHH50B1 (VHH)
VHH: QVQLVESGGGLVQAGGSLRLSCAASGRAFSRYSMGWFRQAPGKEREFVAANYWSNGWTDYADTVKGRFSISRDNAKNTVYLQMNSLKPEDTAVYYCAGRSSSIPSADVVGYDYWGQGTQVTVSS
B26: VHH174B1 (VHH)
VHH: QVQLVESGGGAVQAGGSLRLSCAASGLTSRHYVMAWFRQAPGIEREFVASIWWGGSTYYADSVKDRFTISRDNAENTVYLQMNSLKPEDTAVYRCAVGTKIGTMGPRYDYWGQGTQVTVSS

What follows are binders tested against T1, human IL-12Rβ1-his (Acro Biosystems), biotinylated (human, UniProt P42701 24-545, biotinylated) (assay: ELISA, periplasmic extract).
T1 construct: bought; captured on Neutravidin in the ELISA; also called Bio-huIL-12Rβ1-His

Binder | OD450 nm
B1 | 0.422
B2 | 3.33
B3 | 1.9
B4 | 0.144
B5 | 0.349
B6 | 1.98
B7 | 0.409
B8 | 2.73
B9 | 0.822
B10 | 3.31
B11 | 2.84
B12 | 3.14
B13 | 3.03
B14 | 0.413
B15 | 3.2
B16 | 3.3
B17 | 2.93
B18 | 3.12
B19 | 1.28
B20 | 2.93
B21 | 2.85
B22 | 2.97
B23 | 0.125
B24 | 1.06
B25 | 0.151
B26 | 1.19

What follows are binders tested against T2, human IL-12RB1 with C-terminal FLAG tag, transiently expressed on HEK-293T cells (human, UniProt P42701 24-662) (assay: FACS, periplasmic extract, HEK-293T).
T2 construct: whole, on cells

Binder | FOB
B1 | 104 fold
B2 | 50 fold
B3 | 101 fold
B4 | 105 fold
B5 | 146 fold
B6 | 117 fold
B7 | 133 fold
B8 | 260 fold
B9 | 43 fold
B10 | 116 fold
B11 | 80 fold
B12 | 75.1 fold
B13 | 82 fold
B14 | 48 fold
B15 | 31 fold
B16 | 183 fold
B17 | 88 fold
B18 | 78 fold
B19 | 78 fold
B20 | 78 fold
B21 | 24 fold
B22 | 152 fold
B23 | 86 fold
B24 | 119 fold
B25 | 132 fold
B26 | 80 fold

What follows are binders tested against T3, cyno IL-12RB1 with C-terminal FLAG tag, transiently expressed on HEK-293T cells (cyno, UniProt A0A2K5VWV1 24-662) (assay: FACS, periplasmic extract, HEK-293T).
T3 construct: whole, on cells

Binder | FOB
B1 | 64 fold
B2 | 44 fold
B3 | 62 fold
B4 | 89 fold
B5 | 81 fold
B6 | 120 fold
B7 | 99 fold
B8 | 184 fold
B9 | 19 fold
B10 | 152 fold
B11 | 88 fold
B12 | 50 fold
B13 | 88 fold
B14 | 19 fold
B15 | 24 fold
B16 | 91 fold
B17 | 82 fold
B18 | 36 fold
B19 | 129 fold
B20 | 58 fold
B21 | 21 fold
B22 | 161 fold
B23 | 42 fold
B24 | 93 fold
B25 | 106 fold
B26 | 68 fold
